Laboratory results reported in article PMC10830117 (Science Advances, 2024).

Biological target: T1, Glutathione synthetase (GSS), full-length wild type, recombinant (human, UniProt P48637 1-474)
T1 sequence (looked up): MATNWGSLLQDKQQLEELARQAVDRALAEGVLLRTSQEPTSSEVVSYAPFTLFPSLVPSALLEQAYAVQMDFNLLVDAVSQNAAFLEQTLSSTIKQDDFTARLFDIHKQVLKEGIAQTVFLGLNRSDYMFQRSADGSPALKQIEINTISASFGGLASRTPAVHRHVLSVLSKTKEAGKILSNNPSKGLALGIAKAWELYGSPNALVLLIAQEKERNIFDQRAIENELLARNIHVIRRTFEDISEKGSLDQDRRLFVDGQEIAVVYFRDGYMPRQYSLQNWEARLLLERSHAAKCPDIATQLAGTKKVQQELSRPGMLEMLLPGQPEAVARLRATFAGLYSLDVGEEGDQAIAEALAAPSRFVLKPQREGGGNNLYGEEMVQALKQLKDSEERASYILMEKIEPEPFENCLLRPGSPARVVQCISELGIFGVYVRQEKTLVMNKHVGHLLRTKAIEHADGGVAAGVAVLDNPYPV
Assay: SPR

Kd: 244 ± 2 nM
stoichiometry N: 1
B1: Human LMPTP-A (low-molecular weight protein tyrosine phosphatase, isoform A) (enzyme, UniProt P24666 1-158, looked up)
chain: MAEQATKSVLFVCLGNICRSPIAEAVFRKLVTDQNISENWRVDSAATSGYEIGNPPDYRGQSCMKRHGIPMSHVARQITKEDFATFDYILCMDESNLRDLNRKSNQVKTCKAKIELLGSYDPQKQLIIEDPYYGNDSDFETVYQQCVRCCRAFLEKAH
